For two molecules, Kd results are on record in paper PMC6018003, “Quantifying the Interaction between Copper-Zinc Superoxide Dismutase (Sod1) and its Copper Chaperone (Ccs1)” (Journal of proteomics & bioinformatics, 2018).

The target in this test is T1, H46R/H48Q/C146S Sod1 labeled with Alexa-546 at C57 (yeast, Alexa-546 C5-maleimide on C57).
T1 construct: two residue (Gly-His) extension left on the N-terminus after TEV cleavage; The vector with His tag and TEV site is stated for Ccs1; the purification with tag removal is told of both proteins; also called immature Sod1; E, E-Sod1^SH; source: E. coli BL21 (DE3) pLysS, purified (HisTrap HP Ni2+ column, TEV cleavage; Superdex 200 after labeling); not shown: His8, N-terminal, cleaved
T1 sequence (P00445 2-154 with H46R H48Q C146S, looked up): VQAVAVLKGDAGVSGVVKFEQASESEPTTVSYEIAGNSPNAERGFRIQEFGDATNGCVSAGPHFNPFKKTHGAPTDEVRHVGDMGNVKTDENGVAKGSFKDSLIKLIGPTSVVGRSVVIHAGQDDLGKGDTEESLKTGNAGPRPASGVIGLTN
The test can be described thus: other fluorescence titration; microplate, quenching of Alexa-546-labeled Sod1 on titration with Ccs1; Sod1 metal deficient and disulfide reduced (E, E-Sod1^SH); 20 mM Tris pH 7.5, 150 mM NaCl, 1 mM TCEP, 0.01% octyl glucoside and CHAPS. The following applies: both partners purified.

B1: Ccs1 lacking D3 (domain or fragment)
chain: MTTNDTYEATYAIPMHCENCVNDIKACLKNVPGINSLNFDIEQQIMSVESSVAPSTIINTLRNCGKDAIIRGAGKPNSSAVAILETFQKYTIDQKKDTAVRGLARIVQVGENKTLFDITVNGVPEAGNYHASIHEKGDVSKGVESTGKVWHKFDEPIECFNESDLGKNLYSGKTFLSAPLPTWQLIGRSFVISKSLNHPENEPSSVKDYSFLGVIARSAGVW
Usually Kd stands for the free concentration of one partner at which half of the binding sites on the other are occupied at equilibrium, for simple one-to-one binding. Read a low Kd as a tighter complex. Take B1: the Kd turned out to be 552 ± 105 nM.

B2: Ccs1 lacking D1 (domain or fragment)
chain: IRGAGKPNSSAVAILETFQKYTIDQKKDTAVRGLARIVQVGENKTLFDITVNGVPEAGNYHASIHEKGDVSKGVESTGKVWHKFDEPIECFNESDLGKNLYSGKTFLSAPLPTWQLIGRSFVISKSLNHPENEPSSVKDYSFLGVIARSAGVWENNKQVCACTGKTVWEERKDALANNIK
B2 showed a Kd of 217 ± 38 nM.
